The DeepSol protein solubility set

Assay: soluble on expression in E. coli; label from the status in PepcDB or PDB records

| Sequence | soluble on expression in E. coli |
| --- | --- |
| TQYKYAWIINGLTKSTGETYIPTAADDGFNIRLEVTGQDAYGQVTEMQYVVYAFSKVETIFSDMYAFAALKTDGSVVTWGYSDYGGDSSSVAGQLTSGVKVIDSTSSAFAAIKEDGSVVTWGDSPYGGDSSSVAGKLTSGVKVIYSNSSAFAAVKQDGSVVTWGSYGGDSSSVAGQLTSGVKVIYSTDSEFGAFAAVKEDGSVVTWGNSPYGGDSSSVAGQLTSGVKVIYSTNNAFAAVKEDGSVVTWGDSGAGGDSSSVAGQLTSGVKVIYSTNNAFAAVKEDGSVVTWGGYGGDSSSVAGQLTSGVKVIYSTNNAFAAVKEDGSVVTWGDSGNGGDSSSVAGQLTSGVKVIDSTYSAFAAVKEDGSVVAWGNSGYGGDSSSVAGQLTSGVKVIDSTTSAFAVVKEDGSVVTWGGSFYGGDSSSVAGQLTSGVKVIYSTSSAFAVVKEDGSVVTWGGSFYGGDSSSVADKLAPNLFLIETSIN | not soluble |
| MPVDLSKWSGPLSLQEVDEQPQHPLHVTYAGAAVDELGKVLTPTQVKNRPTSISWDGLDSGKLYTLVLTDPDAPSRKDPKYREWHHFLVVNMKGNDISSGTVLSDYVGSGPPKGTGLHRYVWLVYEQDRPLKCDEPILSNRSGDHRGKFKVASFRKKYELRAPVAGTCYQAEWDDYVPKLYEQLSGK | soluble |
| MHLSPESLEAFVQAVSLGSFSAAARKLGKSQSTVSEAIARLEIDLGLELFDRSGRQPQLTEAGRTLLGRVEEVLGASDRLRRVAALLAGGSEPRVTLALSDTYHSARYEARLAELDERYPELEFECLIAEDQDVIAQVSRGRATLGLLAAQPHYPPELGVAAVAERAEFGLFAAVDHPLAGLERVSERDLSEWRLLRLNTYSETGAAINDGLPSSGGRCWSAPNYLLLLEMATHGFGWAELPRWLVSGYANGRLKELPVSGWPRSQAVDVVWSRQRPLGPAANWLLDRLLDRDLPI | not soluble |
| FISDLHLEAERPDITRAFLSFLDERARRAEALYILGDFFEAWIGDDGMDAFQRSIAQSLRQVADGGTRIYLMHGNRDFLIGKAFCREAGCTLLPDPSVIDLYGEPVLLMHGDSLCTRDEAYMRLRRWLRNPLTLWVLRHLPLATRHKLARKLRKESRAQTRMKAVDIIDVTPEEVPRVMRGHGVRTLIHGHTHRPAEHPLDIDGQPARRIVLGDWDRQGWALEIDANGHR | not soluble |
| GREPADMVLKGGRFFDLVTGELVASDIAICGDTVVGTCGDYKGRHEIDISGKIVVPGFIDTHLHIESSLVTPHEFDRCVLPYGVTTAICDPHEIANVLGAEGLQFFLDSAMETIMDIRVQLSSCVPATHLETSGADLPIEKLLPFRNHPKVIGLAEFMNFPGVIHKDPVCMAKLEAFQGQHIDGHAPLLSGAALNGYLAAGIRTEHECTSAAEALEKIRKGMHILVREGSVSKDLHALMPIITERLSPYLALCTDDRNPLDIAEQGHLDYMIRTAIASGVEPLAIYRAASISAAKAFGLRDRGLVAPGWRADLVVIDTLQNCKASMVLSGGRLVDDALFATRKPVAPVGLDSVKARPVLASHFGVPVTEGETPVMGVLPGKIITEHRRYKLPTDGNQTTVDLENDIIKVAVIERHGKNGNHANGFVQGFGLKKGAIASTVGHDSHNICVVGVSEDDMALAANRLGDIKGGFVVVEDGRVTGEIALPVAGLMSLEPYETVRDTLHTLRKAAYALGTTLEEPFLQVAFLPLPVIPHLKISDMGMVDVDRFA | not soluble |
| SAFQKAASLLGAPIGHDFCVISLSDLMTPWDRIEKRIHAAATADFVTAVYNPKSEGRYWQLYRLKEIFLKERDPETPVGFVRQAGRKEETVTITTLQEFDPEQVDMFTVVLIGNSQSYHQEG | soluble |
| MDLLSLKTVTTLSDCVTIAEQDQVKIVRVIHDKASAAISLHGGHVLSFQPKGQADLLWMSSQAIYDGKAALRGGIPVCWPWFGRIAAPAHGFARNQEWKLIEHREIEQGVIVTLGLQATPESLAIWPYQFDVRLHVEIRESLTVTLDVTNTDSKAWTFSGALHTYLHVGDIRETQTSGVGTEYIDSLQNSRLCTQHGLLTLTDTIDRVYTQPEPLITVQDPALARTLTVENQGHNSAVLWNPWQQGAQSMADMNDEGYLHFLCVESTLHAPSLAEGITLQPGQNHQLVTQITSQAQ | not soluble |
| MLEIVSEELRHYQEQKLIEYRNKNQLAPKGGIVFAGDSLIEFFPLKKAFGSCLPIINRGIAGIDSQWLLRHFSVQITDLEPKHIFLLIGCNDIGLGYDKCHIVKTIVELISQIRSHCVYSQIYLLSLLPVSNNPRYQKTVKIRTNAMIDAINKDLAMIPTVEFINLNTCLKDEKGGLSDENTLDGLHLNFPAYAKLAEIIKSYI | not soluble |
| MIIEKKIKNYTVFVKKDGEKYIEIFKDFLSYNHQVIKVFRNIEDTKVVLINTDYGKYILKVFSPKVKNTERFFKSLVKGDYYEKLFHQTDRVRREGFAALNDFYLLAEIKTLRYVKTYVMIIEYIEGIELVDMPEISDEVRGKIKQSIYSLHQHGMVSGDPHKGNFILQGNEIRIIDLSGKRPSRQRKAKDRIDLERHYGIKNNVRDIGFYLLIYKKKLRNFLRRIKGKEKRLEHHHHHH | not soluble |
| MSLKNQKPLAELLRPSTLEEYFGQNKLIGEQTLLRSLLKSQEIPSLILWGPPGCGKTTLAHIIASSIKQKGTGRFVTLSATSASVSDVREVIKQAQNELRLCKRKTVLFIDEIHRFNKSQQDTFLPHVECGTITLIGATTENPSFQVNSALLSRCRVLVLERLSVEAVGSILRRAVDFLDLRILDSEERHSSEICSEAQVCVEQKALDTLAHLCDGDARAALNGLQLAVQACVLQSSSNHNRSSTVVREQHIKEALQRSHILYDKAGEEHYNCISALHKSMRGSDANAALYWLARMLEGGEDPLYVARRLVRFASEDIGLADPVALSQAVAAFQACHLIGMPECEVILAQCAVYLARAPKSVEVYKAYNNVKMCLRNHKGPLPSVPLHLRNAPTKLMKNLGYAKGYKYNPNYSGPVKQEYLPEELRGVDFFTWTPSEGHHHHHH | not soluble |
| MGSDKIHHHHHHMNEKEYEERLRIETIDIQHLYNAFSHYNRYEPTPYAALEELCAVYPFDYTDTVIDFGCGKGRLNFYLHDRFDCSVIGVEMNGQFYEDALMNQVTYMKKMKRRRGSIRFEHTYAEAYPIPDDVTKCYFFNPFSVQIFMKVVDQILASVERHPRPVDLILYYPADEYRYYLENQTIFEQVEEVRLKELFEKNHDERFVIYRVNLSQEVPKRV | not soluble |
| MAFRVSVRLARDTFCLSDTVEGSVAVDVEGTSHDVAAAAPSAVRVALRAVEEAGKRHAIEHMALVTTVAGPSTAHEEAAAAALRESVNRFTTEAARRHPLLGVPVSTDSTMLVEGAASEHYTYSAGAGAASNPGGVTSETATSPPQRWEAGGHYVYPFALQLPPWLPPSYYYKPSAVKSHMSMRYTVAAFVVCGVEEADVDVVPREFRLQMTVLVPCTPLPAKAWRGSSCTSDGGAEGADKRGTCASAPLLSPVRFLLPAEIPQLLERLPAAQLVDFTVLSALPKRELQQCVERVSISPPFREKLTYHIYKYSLVLRGLLRNKPYTAVDVCITYDSGAAVLLCGRQQSVVRGGVALGLAAPHGNDSGDAPAALSSAGSGVAPGGLTVMGTVVGGEYSRAPRIHTDNHGMAPSPLGKRARGRQSPAAADPHTGDSANSLWRDGEGAGGSQLSALSACTEPAINGALRLHVRVRTGSVAVSKVRVKLLERVRCTSAPATQPNDVYTLATYTHSEKIHANTSTEFPIELALPKQFRHIAADNEKYPPPAGITTAAVHTTTWLQITFPSLHAVSEAQLAENVVLVGEDVDLTDTVPFLPCACPVRTL | not soluble |
| MSLSDPTNNKPAPVLRESATFDRLTIQEIQRAAETGIYDIRGGGTKRKLPHFDDLLLLGASVSRYPLEGYREKCGTDVVLGNRFAKKPLYLKIPVTIAGMSFGALSANAKEALGRGATIAGTSTTTGDGGMTPEERGQSQHLVYQYLPSRYGMNPDDLRKADAIEIVLGQGAKPGGGGMLLGMKVTERVAGMRTLPVGVDQRSACRHPDWTGPDDLAIKIAEIREITDWEKPIYVKIGASRPYYDVKLAVKAGADVIVLDGMQGGTAATQEVFIEHVGIPILPAIPQAVQALQEMGMHRKVQLIVSGGIRNGADVAKAMALGADAVAIGTAALIALGDNHPRLDEELKKIGSAAGFYDDWQNGRDPAGITTQDPELSKRLDPVEGGRRLANYLRVLVLEAQTMARACGKSHLHNLDPEDLVALTVESAAMARVPLAGTSWIPGSGSKGIITITTDPNSSSVDKLAAALEHHHHHH | soluble |
| MRGSHHHHHHGSALSNKFIGDDMKMTYHMDGCVNGHYFTVKGEGNGKPYEGTQTSTFKVTMANGGPLAFSFDILSTVFKYGNRCFTAYPTSMPDYFKQAFPDGMSYERTFTYEDGGVATASWEISLKGNCFEHKSTFHGVNFPADGPVMAKKTTGWDPSFEKMTVCDGILKGDVTAFLMLQGGGNYRCQFHTSYKTKKPVTMPPNHVVEHRIARTDLDKGGNSVQLTEHAVAHITSVVPF | soluble |
| MEIKEMVSLARKAQKEYQATHNQEAVDNICRAAAKVIYENAAILAREAVDETGMGVYEHKVAKNQGKSKGVWYNLHNKKSIGILNIDERTGMIEIAKPIGVVGAVTPTTNPIVTPMSNIIFALKTCNAIIIAPHPRSKKCSAHAVRLIKEAIAPFNVPEGMVQIIEEPSIEKTQELMGAVDVVVATGGMGMVKSAYSSGKPSFGVGAGNVQVIVDSNIDFEAAAEKIITGRAFDNGIICSGEQSIIYNEADKEAVFTAFRNHGAYFCDEAEGDRARAAIFENGAIAKDVVGQSVAFIAKKANINIPEGTRILVVEARGVGAEDVICKEKMCPVMCALSYKHFEEGVEIARTNLANEGNGHTCAIHSNNQAHIILAGSELTVSRIVVNAPSATTAGGHIQNGLAVTNTLGCGSWGNNSISENFTYKHLLNISRIAPLNSSIHIPDDKEIWEL | soluble |
| MIRVTIEREADGRIRAFTMEGHAHFAKRGQDIVCAGASAVSFGTINAIETLIGVSPHVSLGKDGGYLRCELPELEEAAAEKVQLLLEAMVVSLKTIERDYGTFIRVTSI | not soluble |
| MSEDKDMKNRNAMTIKRFVDVEEDGEHGGSGEFAELFQESIKQHRVGEVVTGKVVHISNEFVLVDIGYKSEGCIAIDEFLDEDGNLTVKVGDEVKALFERKENQKGYAVLSRRKAERLAVWDVIDEAGGEGGIIEGKITGKVKGGLTVDIGVQAFLPASQVDLRPGGNLDKYIGTTDRFKVLKLNKKRGNIVLSRRVLMEEERESSRKETLATLAEGQVREGVVKNITDYGAFVDIGGVDGLLHVTDMSWGRLGHPSEILKPGDKLNVKVLKYDQEKGKISLGLKQVTPDPWVSVEQKYNQGDRVKGKVVSLTDYGAFIALEDGVEGLVHVSEMSWTRRLRHPSEILTVGDEVETVVLGVDMGNRRISLGLKQVQVNPWTQLEEKYPVGTKLEGQIKSITDFGVFIGIEEGIDGLVHVSDISWTKRIKHPGEVFTKGQTVQAVVLNIDPENERLSLGIKQLLLDPWSEIPVKYRPGTRVHGKVTSVTDFGVFLEIEEGIEGLIHVSELSREKVASPKEFTNVGDELDAVVLSVDESEKKIALSIKSLQMAAEKAEIESYMQAQGEATSNLGELLKVGFRKNGDGNDLEHHHHHH | not soluble |
| MWQCHLSAQDYRYYPVDGYSLLKRFPLHPLTGPRCPVQTVGQWLESIGLPQYENHLMANGFDNVQFMGSNVMEDQDLLEIGILNSGHRQRILQAIQLLPKMRPIGHDGYHPTSVAEWLDSIELGDYTKAFLINGYTSMDLLKKIWEVELINVLKINLIGHRKRILASLGDRLHDDPPQKPPRSITLRTGDWGEPSITLRPPNEATASTPVQYWQHHPEKLIFQSCDYKAFYLGSMLIKELRGTESTQDACAKMRANCQKSTEQMKKVPTIILSVSYKGVKFIDATNKNIIAEHEIRNISCAAQDPEDLSTFAYITKDLKSNHHYCHVFTAFDVNLAYEIILTLGQAFEVAYQLALQARKGGHSSTLPESFENKPSKPIPKPRVSIRKSVDLLHASHTGQEPSERHTEEALRKF | soluble |
